# Data: the DeepSol protein solubility set
# Assay: soluble on expression in E. coli; label from the status in PepcDB or PDB records
row,Sequence,soluble on expression in E. coli
1,MTNDVEMKSETEELPPFPTVHILQVVKDAQQQHGLRHGDYARYRKYCAAKLERMRKALKFTNSHNCQKKRKAKFVKKWLSVESVQNVQFLNFGIFESERRYAEAMIDKITLEDNPEKSRKKFSMINSLRKAVLHATNLEKIVQESERFDAPTKLEAQAYAAWMRGMCSFESRNWQKASESLKLAKTVYEKLAEATNNTTLSSIFKGRCREIQPQLRLCEFNIAESPGAVGTMTELMELRMQMGEGGDSSVDKLISEMRASATSAEVVTIEWGGAKSTVDDEKAKQVVQEWKQTEVELAQCQTPKEKMALFEKATADTRDAIDRISDIIRRKSSENADTTVLQSIKAYLEFLKMNGTASRYLAIIDNTKSEKKSKPQDLLRLYDSVIEIYKEVAEIPGADHDKNLIQAFEVKVEYYRAFRCFYMASSYSALHKYSEAAALFDRTVSRVQDAEGKLKKLKSSSFITNETQSSLNELRSEVESAKVTVRAARLASAAGDVKTDSELAKIIDKRPLLETVNEWRQWDVRNSLKDKKTIPVASLPPAFIPMPNKPIFFDLANFHLTMPNVDDRLEKLQKDRDATPKKAAKGSSAAAASSKTSNQEEEEQQGLTGMLSGWKKSFWGNK,not soluble
2,MQHIYVPYHVRDHPMSSVCERFERELRRGAIQLEVICLLENERYGYEIVKKLKESGFRVEEGTLYPLLRRLEGEGILSSRWSTDDTRPRKYYTVTDYGKRVRKKWLELFRSINRSLEDLTEVDQ,not soluble
3,MGSDKIHHHHHHMPLDVDHLRIPALPQLFMELQNALGQPHVSYERIAAIVSKDPRLTASLLKLVNSPHFGFSTPIETVSRAVAASGIRRVSALALGTFVLGLYRERPPLVVDIQGFWLHSVGCGIAARLLAQRLGRSDPERFFVAGLLHDMGWLALCSAAPDRAERIVRRIQSTGCSCEEAERLELGTTHAELGATVLKTWNLPAFLIDVVRSHHAPLATVGDNPPVDGALEVHIADAVVKGMGIGGALDARIAPLDLDAVDTLGLSGHDIAAMTNGLVEQSQALSRLLQGD,not soluble
4,SLQAINPNWNVPKNIHAFTTTREGGVSLAPYLSFNLGDHVGDNKSAVKTNRTLLVEKFGLPQTPIFLTQTHSTRVIQLPYSGQNLEADAVYTNVPNQVCVVMTADCLPVLFTTTSGNEVAATHAGWRGLCDGVLEETVKYFQAKPEDIIAWFGPAIGPKAFQVGIDVVEKFVVVDEKAKLAFQPDAIEEGKYLSNLYQIATQRLNNLGITQIYGGNHCTFNEKEKFFSYRRDNQTGRMASVIWFE,soluble
5,MLAGLGEGGRVYIADLAIGPVALRDDGSIEEYELFPRSVDEAVTEALRLEEEGFTLAHEKLGKKLVESGVGSLVVESEDTARHFSKLGLSVKVEPGNNVALSARERLVSLGVELGFFGSEDDALSWLYEVEVEYTRRKLRGAAQKRDMLAAQAIRAIDDIDKTVNLFVARLREWYSIHFPELNDLVREHEDYVKIVSAVGHRDNITVERLVDLGFSEEKARRIAEAAKQSIGADLSEIDIQAVQTLARITSELYQLRRRLTEYIEQVMNEVAPNITALVGPLLGARLISLAGGLDKLARMPASTIQVLGAEKALFRALRTGGKPPKHGIIFQYPDIHRSPKWQRGKIARALAAKLAIAAKVDAFTGRFIGDKLREELRRRIAEIKKIYAKPPKRKREEKPPQPRRARPPRRGRPPRRRRGGRRLEHHHHHH,soluble
6,MPPPSPLHLDPIEEAHRQWTKHGWGDVADGMAAVTSVMRAQQIMMARVEEVLKPSGLTFARYELLTLLTFTRTGALPMAKASARLQVHPTSVTNAVDRLETANLVRRVPHPSDRRATLIEITDAGRKLAVESTERLNAQVFSRPGVSGDKLEQLVTILAELRREAGDFDTGDAPTKW,not soluble
7,MIDIQGIKEALPHRYPMLLVDRVLEVSEDTIVAIKNVTINEPFFNGHFPQYPVMPGVVIMEALAQTAGVLELSKPENKGKLVFYAGMDKVKFKKQVVPGDQLVMTATFVKRRGTIAVVEAKAEVDGKLAASGTLTFAIGN,soluble
8,MPHSQTSAPRDSLAGVRLARGASPWLLPTVATAAVSLLRARRSGTAKAVAVPATALAAGMLWFFRDPEREITQGRVVSPADGVVQSIMPWKDGRTRVAIFMSPLNVHVNRAPLAGTVTSVEHVPGGFVPAFNKESENNERVVWHFDTELGDIEMIQIAGAVARRIVPYVPQGTKVEQGERVGLIRFGSRVDLYLPEGVEVDVEVGQKTVAGVTRIDRDLEHHHHHH,not soluble
9,KKVCACPKILKPVCGSDGRTYANSCIARCNGVSIKSEGSCPTGI,soluble
10,MSLETRARNSTRPASGLIDWEQARQAALRLSQWEQAPVDNRAFRREQYARMVALSEPLIADYLGVRLPEPVSRIFVFDRREWLEANIVSFSQLFRPIEEMYEKNGGGRGALGVLMNDVSSKLLGVQIGGLLGYLAQRVLGQYDLSLLSAEATGGSLYFVEPNIARVQQQLGLSDEDFRLWITLHEMTHAFEFEAYPWVRTYFRELLEQNFALVSGQMLSSGNSLVDMLMRLLQGIGSGQHWIETVLTPEQRAVFDRIQALMSLIEGYGNHVMNAVGRRLLPSFNQIEQQIAQRQRQRTMLDQMVFRLTGLDLKLAQYQQGEAFVNAVVAARGIQFASRVWERPENLPSMDEIRNPGQWIVRMDREGHHHHHH,soluble
11,MEQLKKQVCDYIESHEEESVKFLKRLIQEKSVSGDESGAQAIVIEKLRELGLELDIWEPSFSKMKDHPYFVSPRTSFSDSPNIVATLKGSGDGKSMILNGHIDVVPEGDVNQWEHHPYSGEKIGNRIYGRGTTDMKGGNVALMLAMEAIIESNIELKGDIYFQSVIEEESGGAGTLATILRGYKADGVIIPEPTNMKFFPKQQGSMWFRLRVKGKAAHGGTRYEGVSAIEKSMFVIEHVRKLEEKRNSRITDPLFKEIPIPIPINIGKIEGGSWPSSVPDELILEGRCGVAPNETIEAAKEEFENWIAELNDVDNWFVENPVEVEWFGARWVPGELEENHELITTLHHNFVEIEGNEPIIEASPWGTDGGLFTQIANVPTIVFGPGETKVAHYPNEYIEVDKMIAAAKIIACTLLDWCEVKK,not soluble
12,MNRLKSDQKTKLRQFVQWTQVTEAVSLNFLAKANWNIEYAMTLYFDNPNLFAGSTPQPSVDRSNIERLFNQYVDPKDKVGEKRMGPHGINRLLTDLGYEATDRRVLVLAWKFTAQTQCEFSLDEWVKGMTALQADTVQNLRQRIDSINSGLESDKAKFHELYLFAFNYAKSAACRNLDLETAICCWDVLFGQRSTIMTQWIDFLWAQENAAASRLAQNVGASNAKQFKSVWISRDTWNLFWDFILLSKPDLSDYDDEGAWPVLIDQFVDYCRENLNYPKPGNASNDQQMETPSYY,not soluble
13,MSLRKLGPVTIDPRRHDAVLFDTTLDATQELVRQLQEVGVGTGVFGSGLDVPIVAAGRLAVRPGRCVVVSAHSAGVTAARESGFALIIGVDRTGCRDALRRDGADTVVTDLSEVSVRTGDRRMSQLPDALQALGLADGLVARQPAVFFDFDGTLSDIVEDPDAAWLAPGALEALQKLAARCPIAVLSGRDLADVTQRVGLPGIWYAGSHGFELTAPDGTHHQNDAAAAAIPVLKQAAAELRQQLGPFPGVVVEHKRFGVAVHYRNAARDRVGEVAAAVRTAEQRHALRVTTGREVIELRPDVDWDKGKTLLWVLDHLPHSGSAPLVPIYLGDDITDEDAFDVVGPHGVPIVVRHTDDGDRATAALFALDSPARVAEFTDRLARQLREAPEGHHHHHH,soluble
14,MSLDNLALRMRPKTIDQVIGQEHLVGPGKIIRRMVEANRLSSMILYGPPGIGKTSIASAIAGTTKYAFRTFNATVDSKKRLQEISEEAKFSGGLVLLLDEIHRLDKTKQDFLLPLLESGLVIMIGATTENPFFSVTPAIRSRVQIFELEPLSNQDVKEALQIALSNPERGFDFPIELDEDALDFIATSTNGDLRSAFNSLDLAVLSTPENDEGIRHITLDIMENSLQRSYITMDKDGDGHYDVLSALQKSIRGSDVDASLHYTARLIEAGDLPSLARRLTVIAYEDIGLANPEAQIHTVTALDAAQKIGFPEARILIANVVIDLALSPKSNSAYVAMDKALADLKTSGHLPIPRHLRDGHYSGSKELGNAQDYLYPHNYPGNWVKQDYLPEKIRNHHYFQAEDTGKYERALAQRKEAIDRLREGHHHHHH,soluble
15,MIEWQDLHHSELSVSQLYALLQLRCAVFVVEQNCPYQDIDGDDLTGDNRHILGWKNDELVAYARILKSDDDLEPVVIGRVIVSEALRGEKVGQQLMSKTLETCTHHWPDKPVYLGAQAHLQNFYQSFGFIPVTEVYEEDGIPHIGMAREVIQA,soluble
